Laboratory results taken from PMC7264293, “Multi-site-mediated entwining of the linear WIR-motif around WIPI β-propellers for autophagy” (Nature Communications, 2020).
No end group written: not given here.

Assays:
WIPI3-Δloop = biological target: T1, WIPI3-Δloop (Homo sapiens, UniProt Q5MNZ6, DEL264-281/DEL75-80); assay: ITC assay, WIR-peptide and its mutants binding to WIPI3-Δloop; conditions: WIPI3-Δloop (Fig. 3e, Supplementary Figs. 6, 7)
T1 construct: GB1-His6 (cleaved yes); made in house; host or cells: Escherichia coli BL21(DE3)
T1 sequence (Q5MNZ6 with tags, fused parts or gaps DEL75-80/DEL264-281): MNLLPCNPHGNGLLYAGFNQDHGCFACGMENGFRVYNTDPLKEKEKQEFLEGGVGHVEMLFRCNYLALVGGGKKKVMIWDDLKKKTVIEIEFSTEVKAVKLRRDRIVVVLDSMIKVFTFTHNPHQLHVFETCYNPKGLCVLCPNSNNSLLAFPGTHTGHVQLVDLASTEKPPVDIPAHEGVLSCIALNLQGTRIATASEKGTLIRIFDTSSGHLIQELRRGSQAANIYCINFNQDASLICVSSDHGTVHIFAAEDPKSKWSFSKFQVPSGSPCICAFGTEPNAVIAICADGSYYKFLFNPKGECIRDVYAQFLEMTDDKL
Experimental: (§1) DNA sequences encoding human WIPI3, WIPI3-Δloop, and two ATG2A fragments (1358–1404 and 1374–1404) were each cloned into a modified pET32a vector. The generation of the fusion construct of WIPI3-Δloop with ATG2A(1374–1404) and the mutations in WIPI3 and the ATG2A fragment were performed by using the standard PCR-based mutagenesis method and confirmed by DNA sequencing. All the primers used in the study were listed in Supplementary Table 3. Recombinant proteins were expressed in Escherichia coli BL21(DE3) (Invitrogen, C6000-03) host cells at 16 °C. […] The eluted proteins were further purified by size-exclusion chromatography (Superdex-200 26/60, GE healthcare). For WIPI3 proteins, after cleavage of the tag, the resulting proteins were purified by another step of size-exclusion chromatography with the buffer containing 50 mM Tris-HCl, pH 8.0, 100 mM NaCl, 1 mM EDTA, 1 mM DTT. For ATG2A fragments, recombinant proteins were purified in the same buffer without cleavage of the tag.
ITC assay was performed using a MicroCalorimeter ITC200 (GE Healthcare Life Sciences, USA) at 25 °C. Prior to the experiment, the protein samples were dialyzed in the buffer containing 50 mM Tris-HCl, pH 8.0, 100 mM NaCl, 1 mM EDTA, and 1 mM DTT. WIPI3 proteins were put in the sample cell and GB1-tagged ATG2A fragments were in the syringe of the instrument. In each experiment, the ATG2A fragment was sequentially injected into the stirred calorimeter cell initially containing the WIPI3 protein sample with the injection sequence of 20 × 2 µl at 2-min intervals. The heat of dilution obtained by the titration of the ATG2A fragment into the buffer was subtracted. The integrated, corrected, and concentration-normalized peak areas of the raw data were finally fitted with a model of one binding site using ORIGIN 7.0 (OriginLab).

WIPI3-Δloop N19A/D21A = assay: ITC assay, WIR-peptide binding to WIPI3-Δloop N19A/D21A; set-up: species or system human; conditions: WIPI3-Δloop N19A/D21A mutant (Supplementary Fig. 5b)
Experimental: as §1
ITC assay was performed using a MicroCalorimeter ITC200 (GE Healthcare Life Sciences, USA) at 25 °C. […]
Supplementary Fig. 5 Structural analysis of the A -B loop of blade 1. […] (b) The binding affinity between the W IR -pept ide and th e W IP I3 -Δloop N19A/D21 A mutant determined b y IT C ex periments. […]

[1] = test system: NRK cells with double knock out of ATG2A/ATG2B and stable expression of GFP-LC3; assay: LC3-positive structures in ATG2A/ATG2B DKO NRK cells transfected with ATG2A; assay type: cell-based, rat; conditions: transfection of full-length ATG2A into ATG2A/B-depleted NRK cells
Experimental: (§2) NRK cells with double knock out of ATG2A/ATG2B and stably transfected with GFP-LC3 were generous gifts from L.Y., Tsinghua University. DNA sequences encoding full-length ATG2A and its various mutants were cloned into the pCAG-Tandem-Strep-Flag vector. Cells were cultured in DMEM (GIBCO) supplemented with 10% (v/v) fetal bovine serum, 100 U/ml penicillin and 0.1 mg/ml streptomycin and were grown at 37 °C in a humidified atmosphere containing 5% (v/v) CO2. Cells were transfected with wild-type ATG2A and various mutants by the electroporation apparatus (Bio-Rad) according to the manufacturer’s instructions. After 48 h, cells were washed three times by PBS and fixed by 4% (w/v) paraformaldehyde. For bafilomycin A1 treatment, cells were cultured in the complete medium containing 10 nM bafilomycin A1 for 2 h before being fixed. ATG2A and its various mutants were detected by immunofluorescence with the anti-Flag primary antibody (Sigma-Aldrich, F1804, 1:300 dilution) and dylight 594 secondary antibody (EarthOx, E032410-01, 1:500 dilution). Fluorescence images were obtained on an inverted confocal microscope (LSM 880, Carl Zeiss) equipped with a 100 × oil-immersion objective lens (NA = 1.30). Confocal settings used for image capture were held constant in comparison experiments. All the fluorescence images were processed and analyzed using the ZEN imaging software (Carl Zeiss). […]

[2] = test system: NRK cells with double knock out of ATG2A/ATG2B and stable expression of GFP-LC3; assay: Autophagic flux in ATG2A/ATG2B DKO NRK cells in the presence of bafilomycin A1; assay type: cell-based, rat; conditions: ATG2A/ATG2B-depleted NRK cells without ATG2A transfection; 10 nM, 2 h
Experimental: as §2, with “For bafilomycin A1 treatment, cells were cultured in the complete medium containing 10 nM bafilomycin A1 for 2 h before being fixed.” left out, “Confocal settings used for image capture were held constant in comparison experiments.” left out
μm. (b) Quantification of the increment of LC 3 -positive structures with bafilomycin […]
A1 treatment. The increment o f LC 3 -positive structures per cell was quantified with […]
used for quantifi cation (n = 3) . […]

Row | Molecule | effect of the WIR-peptide mutation on the binding, in words (WIPI3-Δloop) | also measured
1 | WIR-peptide: GB1-tagged recombinant short fragment (1374–1404) of ATG2A, minimum WIPI-interacting region (PRDGEPVVTQLHPGPIVVRDGYFSRPIGSTD; also: GB1 tag, end not given here, His6 tag, end not given here) | – | binding of the WIR-peptide, in words (WIPI3-Δloop N19A/D21A): abolished the binding
2 | WIR-peptide V1380A: WIR-peptide with V1380A point mutation (PRDGEPAVTQLHPGPIVVRDGYFSRPIGSTD; also: GB1 tag, end not given here, His6 tag, end not given here) | affected the binding | –
3 | ATG2A WT: full-length wild-type ATG2A, Tandem-Strep-Flag-tagged, expressed by transfection | – | rescue of the depletion defect (large LC3-positive clusters), in words [1]: could rescue the depletion defect
4 | WIR-peptide V1381A: WIR-peptide with V1381A point mutation (PRDGEPVATQLHPGPIVVRDGYFSRPIGSTD; also: GB1 tag, end not given here, His6 tag, end not given here) | decreased the binding more severely | –
5 | CO/C1=C\C(C)=C\[C@@H](C)[C@@H](O)[C@@H](C)C/C(C)=C/C=C/[C@H](OC)[C@@H]([C@@H](C)[C@@H](O)[C@H](C)[C@@]2(O)C[C@@H](O)[C@H](C)[C@@H](C(C)C)O2)OC1=O [bafilomycin A1] | – | increase of LC3-positive structures in the presence of bafilomycin A1, in words [2]: No obvious increase

Continued, in another order:

Row | effect of the WIR-peptide mutation on the binding, in words (WIPI3-Δloop) | Molecule | also measured
6 | severely impaired the binding | WIR-peptide V1391Q: WIR-peptide with V1391Q point mutation (PRDGEPVVTQLHPGPIVQRDGYFSRPIGSTD; also: GB1 tag, end not given here, His6 tag, end not given here) | –
7 | disrupted the binding | WIR-peptide D1393A: WIR-peptide with D1393A mutation (PRDGEPVVTQLHPGPIVVRAGYFSRPIGSTD; also: GB1 tag, end not given here, His6 tag, end not given here) | –
